Assays:
[1] = target: equine choriogonadotropin (eCG) or PMSG (equine) (UniProt P01220); test: ELISA on commercial eCG, antibody at 1 µg/ml
[2] = target: equine choriogonadotropin (eCG) or PMSG (equine) (UniProt P01220); test: ELISA on commercial eCG, antibody at 10 µg/ml

Chain of equine choriogonadotropin (eCG) or PMSG (equine) (P01220 25-120 limits assumed, chain 1 of 2): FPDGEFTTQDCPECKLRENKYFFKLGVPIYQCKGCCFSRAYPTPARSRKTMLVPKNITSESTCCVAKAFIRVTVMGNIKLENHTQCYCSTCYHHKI
Chain of equine choriogonadotropin (eCG) or PMSG (equine) (P08751 21-169 limits assumed, chain 2 of 2, further chain): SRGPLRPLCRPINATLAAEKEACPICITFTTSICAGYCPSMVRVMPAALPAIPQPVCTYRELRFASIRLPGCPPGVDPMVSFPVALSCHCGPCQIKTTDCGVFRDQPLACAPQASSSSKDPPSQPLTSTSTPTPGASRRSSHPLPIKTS

Substance: isotypic control (IgM directed against another type of antigen very remote from the gonadotropic hormones) (antibody)
- OD [1]: 0.09 OD
- OD [2]: 0.09 OD
